We go through 10 molecules from paper PMC5915741, “A Viral Suppressor Modulates the Plant Immune Response Early in Infection by Regulating MicroRNA Activity” (mBio, 2018).

Data set [1] deals with the molecule itself. The experiment in a line: AUC; sedimentation equilibrium (18,000 rpm) and velocity (40,000 rpm), 20°C, CIRV p19 at 1.2 to 13 µM in buffer D; no RNA.
The target in data set [2] is T1, p19 (Carnation Italian ringspot virus (CIRV), UniProt Q66104 1-172).
T1 sequence: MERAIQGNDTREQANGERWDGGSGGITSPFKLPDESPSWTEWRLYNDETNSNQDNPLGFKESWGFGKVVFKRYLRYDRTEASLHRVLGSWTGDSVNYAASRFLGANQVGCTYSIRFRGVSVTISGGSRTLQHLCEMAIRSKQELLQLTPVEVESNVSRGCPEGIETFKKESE
The experiment in a line: EMSA. The note with it: protein: recombinant, tags: GST (pGEX-6P-1) removed by PreScission protease, chain copies: 2. A general note: A gel shift assay detects complexes by their altered migration in electrophoresis.

Data set [3] deals with T2, 2b (Tomato aspermy virus (TAV), UniProt Q8UYT3 1-95).
T2 sequence: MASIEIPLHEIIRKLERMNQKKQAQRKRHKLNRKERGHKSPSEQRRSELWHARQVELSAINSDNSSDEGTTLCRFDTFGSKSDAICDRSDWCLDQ
The data set can be described thus: EMSA. The note with it: protein: recombinant, tags: His-SUMO removed by SUMO protease, chain copies: 2.

For data set [4], the target named is T1, p19. The experiment in a line: competition EMSA; KC vs labeled gf698 siRNA, 0.5 nM p19 dimer. The note with it: protein: recombinant, tags: GST (pGEX-6P-1) removed by PreScission protease, chain copies: 2.
The target in data set [5] is T2, 2b. The data set can be described thus: competition EMSA; KC vs labeled gf698 siRNA, 1.9 nM 2b monomer. To be noted: protein: recombinant, tags: His-SUMO removed by SUMO protease, chain copies: 2.
Setting [6] is: miRNA duplex with mismatches, 22 nt star strand.
[7] abbreviates: label: 5'-32P, miRNA duplex with mismatches, 3' overhangs.
Setting [8] is: miRNA duplex with mismatches, 3' overhangs.

B1: Carnation Italian ringspot virus (CIRV) p19 protein (natural protein)
chain: T1 sequence
notes: p19 viral suppressor of RNA silencing of Carnation Italian ringspot virus (CIRV); the p19 open reading frame cloned into pGEX-6P-1; theoretical mass of the monomer 19.479 kDa; GST removed with PreScission protease; also called Tombusvirus p19; source: E. coli BL21(DE3) RIPL, purified (GSTrap, PreScission cleavage, Resource Q anion exchange)
A word on the stoichiometry N: it is the number of molecules, sites or subunits per partner or assembly. As to B1, the “stoichiometry N” value in data set [1] was 2.

B2: gf698 siRNA (dsRNA)
RNA 1: UAGUUCAUCCAUGCCAUGUGU
RNA 2: ACAUGGCAUGGAUGAACUAUA
modifications: 5' phosphate on both strands
As usually defined, the Kd is the constant that tells how readily two partners part at equilibrium. Broadly, the Ki is a measure of affinity in units of concentration, obtained from inhibition or displacement. For the molecule B2, the figures for the Kd with p19 [2] (2 nt 3' overhangs) and in the data set with 2b [3] (2 nt 3' overhangs) were 0.06 ± 0.04 nM and 0.68 ± 0.15 nM, respectively. Also, the Ki was found to be 0.07 ± 0.03 nM with p19 [4] (2 nt 3' overhangs) and 0.53 ± 0.08 nM with 2b [5] (2 nt 3' overhangs).

B3: AtmiR403 (dsRNA)
RNA 1: UUAGAUUCACGCACAAACUCG
RNA 2: UGUUUUGUGCUUGAAUCUAAUU
modifications: 5' phosphate on both strands
Take B3: the figures for the Kd in the data set with p19 [2] (setting [6]) and in the data set with 2b [3] (setting [6]) were 1.37 ± 0.29 nM and 0.26 ± 0.03 nM, respectively. Further, the inhibition constant (Ki) with p19 [4] (setting [6]) amounted to 1.09 ± 0.43 nM; with 2b [5] (setting [6]), 0.05 ± 0.004 nM.

B4: NbmiR168a,b,c (dsRNA)
RNA 1: UCGCUUGGUGCAGGUCGGGAC
RNA 2: CCCGCCUUGCAUCAACUGAAU
modifications: 5' phosphate on both strands
On to B4, for which the Kd in the data set with p19 [2] (setting [7]) amounted to 6.57 ± 1.5 nM.

B5: AtmiR162 (= NbmiR162b per Table 1) (dsRNA)
RNA 1: UCGAUAAACCUCUGCAUCCAG
RNA 2: GGAGGCAGCGGUUCAUCGAUC
modifications: 5' phosphate on both strands
On to B5, for which the Kd with p19 [2] (setting [8]) was 0.07 ± 0.03 nM; with 2b [3] (setting [8]) it was 0.46 ± 0.06 nM. Further, the Ki was 0.12 ± 0.05 nM with p19 [4] (setting [8]) and 0.67 ± 0.09 nM in the data set with 2b [5] (setting [8]).

B6: NbmiR162a (Table 1 name) (dsRNA)
RNA 1: UCGAUAAACCUCUGCAUCCAG
RNA 2: GGAGGCAGCGGUUUAUCGAUC
modifications: 5' phosphate on both strands
As for B6, in the data set with p19 [2] (setting [7]), the Kd came out at 0.14 ± 0.05 nM.

B7: NbmiR403a (dsRNA)
RNA 1: UUAGAUUCACGCACAAACUCG
RNA 2: UGUUUGUGCGUGAAUCUGACA
modifications: 5' phosphate on both strands
Consider B7, for which the dissociation constant (Kd) with p19 [2] (setting [8]) worked out at 0.11 ± 0.02 nM; with 2b [3] (setting [8]), 0.22 ± 0.03 nM. In addition, the Ki with 2b [5] (setting [8]) came out at 0.01 ± 0.006 nM.

B8: NbmiR403b (dsRNA)
RNA 1: UUAGAUUCACGCACAAACUCG
RNA 2: UGUUUGUGCGUGAUUCUGACA
modifications: 5' phosphate on both strands
In the case of B8, the Kd in the data set with p19 [2] (setting [8]) is 0.37 ± 0.06 nM; in the data set with 2b [3] (setting [8]), 0.26 ± 0.03 nM. In addition, the Ki in the data set with 2b [5] (setting [8]) was determined as 0.02 ± 0.003 nM.

B9: AtmiR168b (dsRNA)
RNA 1: UCGCUUGGUGCAGGUCGGGAA
RNA 2: CCCGUCUUGUAUCAACUGAAU
modifications: 5' phosphate on both strands
With B9, in the data set with p19 [2] (setting [7]), the Kd stood at 4.83 ± 1.57 nM.

B10: AtmiR168a (= NbmiR168d,e) (dsRNA)
RNA 1: UCGCUUGGUGCAGGUCGGGAA
RNA 2: CCCGCCUUGCAUCAACUGAAU
modifications: 5' phosphate on both strands
Regarding B10, the Kd worked out at 2.29 ± 0.78 nM in the data set with p19 [2] (setting [8]) and 1.24 ± 0.15 nM in the data set with 2b [3] (setting [8]). The Ki with p19 [4] (setting [8]) turned out to be 1.59 ± 0.35 nM; with 2b [5] (setting [8]), 12.1 ± 0.7 nM.
